One block for each binder: values may come before it.
Assays:
Test in all cases: protein array
[1] = target: T1, neural retina leucine zipper, transcript variant X4 (human, UniProt P54845 1-237)
T1 construct: on protein array; also called NRL

[2] = target: T2, Ankyrin repeat domain 20 family member a5, pseudogene (human, UniProt A0PJZ0 1-165)
T2 construct: on protein array; also called ANKRD20A5P

[3] = target: T3, GRB10 interacting GYF protein 1, transcript variant X10 (human, UniProt O75420 1-1035)
T3 construct: on protein array; also called GIGYF1
T3 sequence: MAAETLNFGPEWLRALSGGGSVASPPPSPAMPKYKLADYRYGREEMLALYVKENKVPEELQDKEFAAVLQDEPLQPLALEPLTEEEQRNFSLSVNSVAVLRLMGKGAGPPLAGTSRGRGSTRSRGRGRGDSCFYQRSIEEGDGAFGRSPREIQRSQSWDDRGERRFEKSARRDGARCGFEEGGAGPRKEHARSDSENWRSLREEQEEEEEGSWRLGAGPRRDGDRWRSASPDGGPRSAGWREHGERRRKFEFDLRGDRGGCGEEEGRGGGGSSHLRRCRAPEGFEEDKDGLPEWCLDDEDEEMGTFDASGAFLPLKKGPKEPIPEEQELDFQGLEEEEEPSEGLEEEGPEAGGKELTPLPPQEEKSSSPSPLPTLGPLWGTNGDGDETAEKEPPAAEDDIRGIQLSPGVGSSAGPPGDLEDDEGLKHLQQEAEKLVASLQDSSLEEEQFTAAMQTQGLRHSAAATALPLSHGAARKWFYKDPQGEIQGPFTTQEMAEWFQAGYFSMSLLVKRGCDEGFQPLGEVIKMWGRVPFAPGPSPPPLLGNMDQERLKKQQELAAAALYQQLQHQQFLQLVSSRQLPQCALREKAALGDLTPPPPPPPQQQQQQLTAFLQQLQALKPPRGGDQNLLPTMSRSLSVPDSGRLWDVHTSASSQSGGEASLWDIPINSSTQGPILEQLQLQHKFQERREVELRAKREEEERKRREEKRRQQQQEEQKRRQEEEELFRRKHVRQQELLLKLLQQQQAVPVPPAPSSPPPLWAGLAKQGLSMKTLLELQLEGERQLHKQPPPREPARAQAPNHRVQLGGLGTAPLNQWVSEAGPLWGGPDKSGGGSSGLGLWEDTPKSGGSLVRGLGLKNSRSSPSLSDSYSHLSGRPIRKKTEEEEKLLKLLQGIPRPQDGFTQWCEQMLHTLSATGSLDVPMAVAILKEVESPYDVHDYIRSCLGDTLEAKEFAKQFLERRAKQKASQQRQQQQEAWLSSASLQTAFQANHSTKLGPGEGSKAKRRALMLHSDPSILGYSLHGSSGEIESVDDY

[4] = target: T4, Kirre like nephrin family adhesion molecule 1 (human, UniProt Q96J84 17-757)
T4 construct: on protein array
T4 sequence: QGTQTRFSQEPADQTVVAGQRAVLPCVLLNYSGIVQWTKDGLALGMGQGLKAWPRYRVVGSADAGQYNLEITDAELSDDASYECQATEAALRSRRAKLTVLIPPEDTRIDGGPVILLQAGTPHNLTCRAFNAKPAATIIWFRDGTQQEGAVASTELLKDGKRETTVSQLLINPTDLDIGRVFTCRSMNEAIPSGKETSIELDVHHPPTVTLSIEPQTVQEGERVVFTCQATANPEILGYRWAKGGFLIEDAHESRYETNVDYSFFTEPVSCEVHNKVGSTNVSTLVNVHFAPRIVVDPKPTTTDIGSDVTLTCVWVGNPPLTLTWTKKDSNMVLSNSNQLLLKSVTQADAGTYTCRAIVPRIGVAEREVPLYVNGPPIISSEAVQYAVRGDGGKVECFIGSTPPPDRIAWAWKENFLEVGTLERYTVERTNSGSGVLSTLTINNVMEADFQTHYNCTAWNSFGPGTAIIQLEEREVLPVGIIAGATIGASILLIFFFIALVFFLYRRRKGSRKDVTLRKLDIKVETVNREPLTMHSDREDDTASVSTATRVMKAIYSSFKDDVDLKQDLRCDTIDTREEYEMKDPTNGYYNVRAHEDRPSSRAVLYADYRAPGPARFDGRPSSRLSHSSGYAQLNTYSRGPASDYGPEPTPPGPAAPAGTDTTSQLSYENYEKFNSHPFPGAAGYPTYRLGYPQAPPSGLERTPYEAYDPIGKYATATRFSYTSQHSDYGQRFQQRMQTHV

[5] = target: T5, BCL2 associated athanogene 2 (human, UniProt O95816 2-211)
T5 construct: on protein array; also called BAG2
T5 sequence (O95816 2-211 limits assumed): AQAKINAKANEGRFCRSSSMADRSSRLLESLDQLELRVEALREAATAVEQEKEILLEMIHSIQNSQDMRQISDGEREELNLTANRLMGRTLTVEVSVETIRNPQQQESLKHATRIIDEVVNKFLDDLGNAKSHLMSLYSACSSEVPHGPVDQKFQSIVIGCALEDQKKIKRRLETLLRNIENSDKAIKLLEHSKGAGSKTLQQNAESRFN

[6] = target: T6, heat shock protein family A (Hsp70) member 2 (human, UniProt P54652 1-639)
T6 construct: on protein array; also called HSPA2
T6 sequence (P54652 whole entry): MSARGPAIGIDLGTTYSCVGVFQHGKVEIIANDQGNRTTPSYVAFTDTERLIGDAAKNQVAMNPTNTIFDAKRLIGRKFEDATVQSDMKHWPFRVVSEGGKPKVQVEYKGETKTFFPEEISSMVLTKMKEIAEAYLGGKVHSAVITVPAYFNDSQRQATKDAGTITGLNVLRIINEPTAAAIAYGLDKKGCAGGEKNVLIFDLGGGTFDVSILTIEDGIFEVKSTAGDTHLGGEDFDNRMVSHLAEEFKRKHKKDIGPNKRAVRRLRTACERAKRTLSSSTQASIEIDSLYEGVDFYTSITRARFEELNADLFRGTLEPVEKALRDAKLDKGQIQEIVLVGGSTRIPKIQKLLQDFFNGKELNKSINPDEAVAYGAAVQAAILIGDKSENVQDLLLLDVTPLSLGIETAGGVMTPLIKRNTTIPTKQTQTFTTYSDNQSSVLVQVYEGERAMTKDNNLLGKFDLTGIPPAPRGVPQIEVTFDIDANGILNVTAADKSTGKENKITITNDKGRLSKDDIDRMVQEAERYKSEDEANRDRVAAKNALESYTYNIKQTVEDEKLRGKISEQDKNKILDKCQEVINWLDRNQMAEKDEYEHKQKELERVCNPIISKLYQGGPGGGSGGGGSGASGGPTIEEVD

[7] = target: T7, HSPA (Hsp70) binding protein 1, transcript variant 2 (human, UniProt Q9NZL4 1-359)
T7 construct: on protein array; also called HSPBP1
T7 sequence: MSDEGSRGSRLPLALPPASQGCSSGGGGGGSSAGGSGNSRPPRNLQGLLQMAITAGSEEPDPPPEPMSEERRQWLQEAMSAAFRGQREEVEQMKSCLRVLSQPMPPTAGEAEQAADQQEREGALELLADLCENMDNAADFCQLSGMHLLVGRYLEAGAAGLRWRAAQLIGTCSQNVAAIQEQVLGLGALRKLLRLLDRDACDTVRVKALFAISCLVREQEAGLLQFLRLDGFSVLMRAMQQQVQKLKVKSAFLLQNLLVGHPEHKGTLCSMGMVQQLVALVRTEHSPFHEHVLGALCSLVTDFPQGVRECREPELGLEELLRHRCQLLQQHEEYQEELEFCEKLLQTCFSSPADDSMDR

[8] = target: T8, coiled-coil domain containing 74B, transcript variant 2 (human, UniProt Q96LY2 1-380)
T8 construct: on protein array; also called CCDC74B
T8 sequence (Q96LY2 other isoform, or with tags, fused parts or gaps mutant limits assumed): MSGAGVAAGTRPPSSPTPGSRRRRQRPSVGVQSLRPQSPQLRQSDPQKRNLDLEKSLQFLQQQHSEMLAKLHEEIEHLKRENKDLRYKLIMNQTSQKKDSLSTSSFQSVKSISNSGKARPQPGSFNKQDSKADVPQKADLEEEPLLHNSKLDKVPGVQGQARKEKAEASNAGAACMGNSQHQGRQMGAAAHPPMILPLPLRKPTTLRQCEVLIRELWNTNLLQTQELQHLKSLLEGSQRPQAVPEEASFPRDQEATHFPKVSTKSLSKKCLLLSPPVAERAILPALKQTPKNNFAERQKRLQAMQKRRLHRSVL

[9] = target: T9, Long intergenic non-protein coding rna 242 (human, UniProt Q5T6M2 1-205)
T9 construct: on protein array; also called LINC00242
T9 chain: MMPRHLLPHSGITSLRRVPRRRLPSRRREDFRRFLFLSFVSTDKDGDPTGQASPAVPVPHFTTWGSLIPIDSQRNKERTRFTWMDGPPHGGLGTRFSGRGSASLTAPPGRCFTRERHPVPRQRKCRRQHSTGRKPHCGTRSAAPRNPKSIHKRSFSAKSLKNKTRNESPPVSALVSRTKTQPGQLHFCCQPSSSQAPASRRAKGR

[10] = target: T10, C-X-C motif chemokine receptor 4, transcript variant 2 (human, UniProt P61073 1-352)
T10 construct: on protein array; also called CXCR4
T10 sequence (P61073 whole entry, change not shown): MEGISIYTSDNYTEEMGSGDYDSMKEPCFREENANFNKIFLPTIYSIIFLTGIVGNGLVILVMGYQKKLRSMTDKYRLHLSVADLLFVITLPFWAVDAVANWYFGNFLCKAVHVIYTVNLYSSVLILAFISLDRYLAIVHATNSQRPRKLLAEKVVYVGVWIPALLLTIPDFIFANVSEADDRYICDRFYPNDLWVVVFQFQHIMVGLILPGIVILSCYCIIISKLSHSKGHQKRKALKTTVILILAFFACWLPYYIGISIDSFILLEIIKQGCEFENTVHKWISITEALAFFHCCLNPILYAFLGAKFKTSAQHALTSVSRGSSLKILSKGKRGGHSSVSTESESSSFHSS

[11] = target: T11, calcium and integrin binding 1, transcript variant b (human, UniProt Q99828 2-191)
T11 construct: on protein array; also called CIB1
T11 sequence: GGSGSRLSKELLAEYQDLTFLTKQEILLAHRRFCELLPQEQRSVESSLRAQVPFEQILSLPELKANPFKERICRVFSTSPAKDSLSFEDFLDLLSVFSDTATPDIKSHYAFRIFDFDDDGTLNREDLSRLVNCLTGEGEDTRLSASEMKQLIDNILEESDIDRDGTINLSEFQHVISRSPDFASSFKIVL

[12] = target: T12, actinin alpha 1, transcript variant 2 (human, UniProt P12814 1-892)
T12 construct: on protein array; also called ACTN1
T12 sequence (P12814 whole entry, change not shown): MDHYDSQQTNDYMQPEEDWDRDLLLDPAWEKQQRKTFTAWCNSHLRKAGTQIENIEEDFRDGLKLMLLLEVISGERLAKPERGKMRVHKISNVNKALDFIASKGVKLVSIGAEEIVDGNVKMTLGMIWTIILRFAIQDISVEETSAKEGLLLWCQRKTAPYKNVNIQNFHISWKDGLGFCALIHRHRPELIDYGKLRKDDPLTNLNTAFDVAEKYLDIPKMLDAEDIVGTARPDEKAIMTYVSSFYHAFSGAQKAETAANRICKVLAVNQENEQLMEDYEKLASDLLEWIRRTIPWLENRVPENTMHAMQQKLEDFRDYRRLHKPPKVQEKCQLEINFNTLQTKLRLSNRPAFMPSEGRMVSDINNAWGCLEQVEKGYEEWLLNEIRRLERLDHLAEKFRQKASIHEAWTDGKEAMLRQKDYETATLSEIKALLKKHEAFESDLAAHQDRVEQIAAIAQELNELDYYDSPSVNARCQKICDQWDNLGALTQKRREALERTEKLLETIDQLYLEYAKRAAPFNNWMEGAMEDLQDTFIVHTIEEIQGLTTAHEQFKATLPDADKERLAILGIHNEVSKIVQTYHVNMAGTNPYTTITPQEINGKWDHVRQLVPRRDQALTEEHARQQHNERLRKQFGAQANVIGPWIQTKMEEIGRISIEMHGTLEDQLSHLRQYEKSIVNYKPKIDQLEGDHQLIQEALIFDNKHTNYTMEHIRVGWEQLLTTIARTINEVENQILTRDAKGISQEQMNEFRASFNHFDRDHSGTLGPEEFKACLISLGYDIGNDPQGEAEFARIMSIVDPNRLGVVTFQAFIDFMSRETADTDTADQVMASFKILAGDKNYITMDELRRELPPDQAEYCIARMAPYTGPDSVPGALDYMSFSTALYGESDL

[13] = target: T13, dual specificity phosphatase 12 (human, UniProt Q9UNI6 1-340)
T13 construct: on protein array; also called DUSP12
T13 sequence (Q9UNI6 whole entry): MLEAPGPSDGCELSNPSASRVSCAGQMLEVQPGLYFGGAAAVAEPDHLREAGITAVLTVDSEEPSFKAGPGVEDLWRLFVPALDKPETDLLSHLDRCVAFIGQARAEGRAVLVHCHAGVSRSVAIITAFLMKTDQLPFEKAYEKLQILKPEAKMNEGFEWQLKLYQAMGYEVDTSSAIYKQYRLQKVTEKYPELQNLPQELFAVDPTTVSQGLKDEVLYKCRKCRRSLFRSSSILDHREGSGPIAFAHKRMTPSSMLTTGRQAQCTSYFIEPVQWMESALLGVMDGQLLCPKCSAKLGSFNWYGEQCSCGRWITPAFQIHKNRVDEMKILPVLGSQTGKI

[14] = target: T14, killer cell lectin like receptor Cl, transcript variant 3 (human, UniProt P26715 1-233)
T14 construct: on protein array; also called KLRC1
T14 sequence (P26715 other isoform, or with tags, fused parts or gaps mutant limits assumed): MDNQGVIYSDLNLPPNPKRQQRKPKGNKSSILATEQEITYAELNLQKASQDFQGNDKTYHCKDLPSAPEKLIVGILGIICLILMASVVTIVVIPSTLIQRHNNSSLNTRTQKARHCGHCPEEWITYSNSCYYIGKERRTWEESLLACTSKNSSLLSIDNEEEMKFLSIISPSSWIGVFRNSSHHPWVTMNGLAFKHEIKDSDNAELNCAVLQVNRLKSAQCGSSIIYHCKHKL

[15] = target: T15, HAUS augmin like complex subunit 1, transcript variant 1 (human, UniProt Q96CS2 1-278)
T15 construct: on protein array; also called HAUS1
T15 sequence: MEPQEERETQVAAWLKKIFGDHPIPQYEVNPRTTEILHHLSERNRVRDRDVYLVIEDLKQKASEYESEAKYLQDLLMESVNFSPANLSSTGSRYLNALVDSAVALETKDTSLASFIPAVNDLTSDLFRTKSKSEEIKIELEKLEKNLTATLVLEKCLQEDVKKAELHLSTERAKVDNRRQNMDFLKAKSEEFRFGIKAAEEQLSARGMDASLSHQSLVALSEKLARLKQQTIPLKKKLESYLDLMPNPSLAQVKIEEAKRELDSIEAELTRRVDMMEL

T1 sequence (P54845 whole entry, change not shown): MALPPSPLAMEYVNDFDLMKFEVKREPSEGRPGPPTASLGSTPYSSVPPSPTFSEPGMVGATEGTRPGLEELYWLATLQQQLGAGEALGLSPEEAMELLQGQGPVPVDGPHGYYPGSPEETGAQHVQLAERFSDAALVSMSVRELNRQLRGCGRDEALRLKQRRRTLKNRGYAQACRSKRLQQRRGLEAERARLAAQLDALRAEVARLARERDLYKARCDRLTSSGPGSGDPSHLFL
T2 sequence (A0PJZ0 whole entry, the tested form may be a part): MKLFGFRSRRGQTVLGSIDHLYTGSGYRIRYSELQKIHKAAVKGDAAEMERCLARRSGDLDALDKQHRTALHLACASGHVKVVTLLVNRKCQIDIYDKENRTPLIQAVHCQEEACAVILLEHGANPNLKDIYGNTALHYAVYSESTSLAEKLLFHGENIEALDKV

- binding result [1]: binds
B1: TSAR1001 (antibody, V domains shown)
VH: EVQLVESGGGMVQPGESLRLSCAASGFDFTSYWMAWVRQAPGKGLEWVANMNADGSEKHYVDSVKGRFSISRDNAKKLLFLQMNSLTVDDTGVYYCARDEGRREGAWGQGTQVIVSA
VL: EIVLTQSPATLSFSPGDRATLSCRASQNINRFLAWYQQKPGQTPRLLIYDASTRATGIPARFSGSGSGTDFSLIISSLEPEDFAIYYCQQRNNWPITFGPGTKVDVK
notes: VH/VL tied via antigen in summary, not by name in this stretch

- binding result [2]: binds
- binding result [3]: binds
- binding result [4]: binds
B2: TPRO1002 (antibody, V domains shown)
VH: EVQLVESGGGVIKPGGSLKLSCEGSGFTLDDYVMHWVRQAPGKGLEWISSISGDGTRTYYADSVKGRFTISRNNGKNSLYLQMDSLRREDTALYYCAKDARLAYYGMDVWGQGTTVTVSS
VL: QSALTQPASVSGSPGQSITISCTGTSSDIGGYDLVSWYQHHPGKAPKLVISEGSKRPSGVSNRFFGSKSGNTASLTISGLQAEDEADYYCCSFTGTSTFVFGTGTKVTVL
notes: as for B1

- binding result [5]: binds
- binding result [6]: binds
- binding result [7]: binds
B3: TSAR1005 (antibody, V domains shown)
VH: QVQLVESGGGVVQPGRSLRLSCVASGFTFSNYAMHWVRQAPGKGLEWVAVIWYDGSNEYYRDSVEGRFTISRDSSKNTLYLLVNSLRAEDTAVYYCARGNGPKSGKYSDFDYWGQGTLVTVSS
VL: DVVMTQSPLSLPVTLGQAASISCRSSQSLVYSDGNTYLNWFQQRPGQSPRRLIYKVSNRESGVPDRFSGSGSGTDFTLQISRVEAEDVGIYYCMQGAHWPPITFGQGTRLEIKR
notes: as for B1

- binding result [8]: binds
B4: TSAR1003 (antibody, V domains shown)
VH: QLQLQESGPGLVKPSETLSLTCTVSGVSIGTSSYYWGWIRQPPAKGLEWIGSIYYSGSTYYNPSLKNRVTISVDTSKNHFSLKLSSVTAADTAVYYCARHRTGQYYYNSWGQGTLVTVSS
VL: SSELTQDPAVSVALGQTVRITCQGDSLRTDYATWYQQKPGQAPILVFYGEDNRPSGIPDRFSGSSSGNTASLTITGAQAEDEADYYCNSRDSSGHHWVFGGGTKLTVL
notes: as for B1

- binding result [9]: binds
- binding result [10]: binds
B5: TSAR1006 (antibody, V domains shown)
VH: QVQLVQSGTEVKKPGASVKVSCKASGYRFTSNGISWVRQAPGQGLQWMGWISTDSGNTNYAQSFQGRVTLTRDTSTNTAYLELRRLRSEDTAVYYCARDKSWYFDYWGQGTLVSVSS
VL: SYELTQPPSVSVSPGQTARITCSGDALPKKYVFWYQQRSGQAPVLVIYEDSKRPSGIPDRFSGSSSGTLATLTISGAQVEDEADYYCYSTDTIGNWVFGGGTRLTVL
notes: as for B1

- binding result [11]: binds
B6: TSTO1001 (antibody, V domains shown)
VH: VVQLLESGGGLVHPGGSLRISCAASEFTFSAYAMTWVRQAPGKGLEWVSAISGSGGRTYYADSLKGRFTISRDNSKHTLYLLMNSLRVEDTAVYYCASRYRSPSGAFDIWGQGTLVTVSS
VL: EIVMTQSPATLSVSQGERATLSCRASQSVGSDLAWYQQKPGQAPRLLIYDASARATDIPARFSGSGSETEFTLTISSLQSEDFAVYYCQHYSDWRALTFGGGTKVEIKR
notes: as for B1

- binding result [12]: binds
- binding result [13]: binds
B7: TBRE1007 (antibody, V domains shown)
VH: QVQLQESGPGLVRPSETLSLTCDVSGYLISSGYYWGWVRQPPGKGLEWIGSVYHSGNAYYNPSLKGRVTMSVDTSKNQFSLKLTSVAAEDTAVYYCAREHRSGYQRYWGQGTLVTVSS
VL: IQMTQSPSSLSASVGDRVTITCRASQAIANSLAWYQQRPGKAPKLLIYAASSLESGVPSRFSGSGSGTDYTLTISSLQPEDFATYYCQQYYINPRTFGQGTKVEIKR
notes: VH/VL only

B8: TREC1003 (antibody, V domains shown)
VH: QVQLVQSGSEVKKPGASVRLACKTSGYTFSNYGVSWVRQGPGRGLEWLGWISGYNGRTHSADKFRDRVTLTTDTSTTTVYVDLKNLTSDDTAVYYCARVGTSHWYSDSWGQGTLVTVSS
VL: QSVLTQPPSVSGAPGQRVTISCAGSYSNIGAGYDVHWYRQLPGTAPTLLIYSNNNRPSGVSDRFSGSKSGTSASLAITGLQAEDEADYYCQSFDSSLSRSVFGTGTKVTVL
notes: as for B1
- binding result [14]: binds

- binding result [15]: binds
B9: TSTO1002 (antibody, V domains shown)
VH: EVQLVESGGGLVKPGGSLRLSCAASGFTFSNAWMNWVRQTPGKGLEWVGRIKTKTDGGTTDYAEPVKGRFTISRDDSKNTLYLQMNSLKTEDTAVYYCTRGAVADYWGQGTQVTVSS
VL: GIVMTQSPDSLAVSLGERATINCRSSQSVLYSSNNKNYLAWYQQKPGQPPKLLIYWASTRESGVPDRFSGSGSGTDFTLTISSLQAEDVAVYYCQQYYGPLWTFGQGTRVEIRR
notes: as for B1

Source: patent US20220204643A1 (published 2022)
